Test results: article PMC10247153
Changes are numbered by the printed parent chain. Numbers in names are those of the source. Blank lines part the entries; values can stand above or below the binder they belong to.

Assays:
Assay in all cases: EMSA
[1] = molecular target: H3K4me3 147 bp mononucleosome, P68431; settings: chain shown with the change;; parent: 6.9 ± 0.8
[2] = molecular target: H3K4me3 187 bp mononucleosome, P68431; settings: chain shown with the change;; parent: 7.3 µM
[3] = molecular target: unmodified 147 bp mononucleosome, P68431; settings: chain shown with the change;; parent: ≥ 12.5 ± 1.2

Kd [1]: 2300 nM
Kd [2]: 1300 nM
Kd [3]: 1800 nM
B1: KDM5C^1–839, P41229-1 D87G (protein)
chain: MEPGSDDFLPPPECPVFEPSWAEFRDPLGYIAKIRPIAEKSGICKIRPPADWQPPFAVEVDNFRFTPRIQRLNELEAQTRVKLNYLGQIAKFWEIQGSSLKIPNVERRILDLYSLSKIVVEEGGYEAICKDRRWARVAQRLNYPPGKNIGSLLRSHYERIVYPYEMYQSGANLVQCNTRPFDNEEKDKEYKPHSIPLRQSVQPSKFNSYGRRAKRLQPDPEPTEEDIEKNPELKKLQIYGAGPKMMGLGLMAKDKTLRKKDKEGPECPPTVVVKEELGGDVKVESTSPKTFLESKEELSHSPEPCTKMTMRLRRNHSNAQFIESYVCRMCSRGDEDDKLLLCDGCDDNYHIFCLLPPLPEIPKGVWRCPKCVMAECKRPPEAFGFEQATREYTLQSFGEMADSFKADYFNMPVHMVPTELVEKEFWRLVNSIEEDVTVEYGADIHSKEFGSGFPVSDSKRHLTPEEEEYATSGWNLNVMPVLEQSVLCHINADISGMKVPWLYVGMVFSAFCWHIEDHWSYSINYLHWGEPKTWYGVPSLAAEHLEEVMKKLTPELFDSQPDLLHQLVTLMNPNTLMSHGVPVVRTNQCAGEFVITFPRAYHSGFNQGYNFAEAVNFCTADWLPAGRQCIEHYRRLRRYCVFSHEELICKMAACPEKLDLNLAAAVHKEMFIMVQEERRLRKALLEKGITEAEREAFELLPDDERQCIKCKTTCFLSALACYDCPDGLVCLSHINDLCKCSSSRQYLRYRYTLDELPAMLHKLKVRAESFDTWANKVRVALEVEDGRKRSLEELRALESEARERRFPNSELLQQLKNCLSEAEACVSRALGLVSGQEAG

Kd [1]: 3700 nM
Kd [2]: 1800 nM
Kd [3]: 3100 nM
B2: KDM5C^1–839, P41229-1 A388P (protein)
chain: B1 chain with G87D, A388P
